Measured values: US9926369B2, “Methods for treating hepatocellular cancer by administering an anti-Ang-2 antibody” (Regeneron Pharmaceuticals, Inc., priority 2009, dated 2018)
Residue numbers refer to the chain shown, from its start.

B1: H2M750N: anti-Ang-2 antibody, HCVR/LCVR SEQ ID NOs 458/466 (antibody, V domains shown)
VH: QVKLVESGGGVVQPGRSLRVSCAASGFTFSSYGMHWVRQAPGKGLEWLAIIWYDGDNKYYSDSVKGRFTISRDNSKNTLYLQMNSLRAEDTAEYYCVRDASIASRFLDYWGQGTLVTVSS
VL: DIQMTQSPSSLSASIGDRVTITCRATQDINNYLAWFQQKPGKAPKSLIYATSNLQSGVPSKFSGSGSGTDYTLTISSLQPEDFSTYYCQQYHSYPLTFGGGTKVEIK
B2: H1H704P: anti-Ang-2 antibody, HCVR/LCVR SEQ ID NOs 186/188 (antibody, V domains shown)
VH: QVQLVESGGDVVQPGRSLRLSCAASGFTFSSYGMHWVRQAPGKGLEWVAIIWYDGSNKYYADSVKGRFTISRDNSKNTLYLQMNSLRVEDTAVYSCARDFSISSRHFDYWGQGTLVTVSS
VL: DIQMTQSPSSLSASVGDRVTITCRASQAINNYLAWFQQKPGKAPKSLIYATSNLQSGVPSQFSGSGSGTDYTLTISSLQPEDFATYYCQQYYIYPITFGQGTRLEIK
B3: H1H693P: anti-Ang-2 antibody, HCVR/LCVR SEQ ID NOs 90/92 (antibody, V domains shown)
VH: EVQLVESGGGLVQPGESLRLSCAASGFTFSSYAMSWVRQGPGKGLEWVSSISGSGGTTYYADSVEGRFTISRDNSKNTLYLHMNSLRAEDTAVYYCAKDFLDYSTYLAFDLWGQGTMVTVSS
VL: DIQMTQSPSSVSASVGDRVTITCRASQGISSWLAWYQQKPGKAPKLLIYAASSLQSGVPSRFSGSGSGTDFTLTISSLQPEDFATYYCQQANSFPRTFGQGTKVEIK
B4: H2M743N: anti-Ang-2 antibody, HCVR/LCVR SEQ ID NOs 410/418 (antibody, V domains shown)
VH: EVQLLESGGGLVQPGGSLRLSCAASGFTFRKYAMSWVRQAPGKGLEWVSVISVSGGNTYYADSVKGRFTISRDNSKNTLYLQLNSLRAEDTAVYYCAKDLTDIVLMVYVDYWGQGTLVTVSS
VL: B3 VL with G28D, S30D, S31R, S77T, F94L, R96F, Q100G
B5: H1M732N: anti-Ang-2 antibody, HCVR/LCVR SEQ ID NOs 242/250 (antibody, V domains shown)
VH: EVQLVESGGGLVRPGGSLRLSCAASGFTFTNAWMSWVRQAPGKGLEWIGQIKSKTDGGTIDYAAPVKGRFTVSRDDSENTLFLQMNSLKTEDTAVYYCAGNWNYVDFDYWGQGTLVTVSS
VL: DIQMTQSPSSLSASVGDRVTITCRASQDIRNDLGWYQQKPGKAPKRLIYAASSLQGGVPSRFSGSGSGTEFTLTISSLQPEDFATYYCLQHNSYPFTFGPGTKVDIK

Key:
[1] = tested on: Tie-2 phosphorylation (Ang-2-mediated) in HUVECs; assay: Inhibition of Ang-2-mediated Tie-2 phosphorylation in FOXO1-adenovirus infected HUVECs; type: cell-based, human; settings: antibody 0.5 μg/ml
Experimental: Further, the inventors have shown that infection of HUVECs with an adenovirus encoding FOXO1 results in expression and secretion of Ang-2, followed by activation of Tie-2 phosphorylation (Daly et al. 2006 PNAS 103:15491).
Anti-Ang-2 antibodies were tested for their ability to inhibit Tie-2 phosphorylation. Briefly, 7×10^5 HUVECs (Vec Technologies, Rensselaer, N.Y.) were plated in 6 cm cell culture dishes in 3.5 ml of MCDB131 Complete medium (Vec Technologies, Rensselaer, N.Y.). The following day, the cells were washed with Opti-MEM (Invitrogen Corp., Carlsbad, Calif.) and fed with 2 ml of Opti-MEM. […] Cells were then washed with MCDB131 and fed with 2 ml of MCDB131 containing anti-Ang-2 antibodies at a concentration of 0.5 μg/ml. At twenty hours post infection, cells were lysed and subjected to Tie-2 immunoprecipitation as described by Daly et al., Proc. Natl. Acad. Sci. USA 103:15491-15496 (2006). Immunoglobulin was collected on protein A/G beads (Santa Cruz Biotechnology, Santa Cruz, Calif.) for one hour. Beads were washed with cold lysis buffer and resuspended in SDS sample buffer for analysis by western blot with antibodies specific for phosphotyrosine (Millipore, Billerica, Mass.) or Tie-2. Signals were detected using HRP-conjugated secondary antibodies and ECL reagents (GE Healthcare, Piscataway, N.J.). X-Ray films were scanned and the phospho-Tie-2 and Tie-2 signals were quantified using ImageJ software. The phospho-Tie-2/Tie-2 ratios were used to determine the % inhibition for each anti-Ang-2 antibody (i.e. Percent inhibition=Reduction in phospho-Tie-2/Tie-2 as compared to control).

[2] = tested on: PC3 (Human Prostate Cancer Cell Line) tumors; assay: PC3 mouse tumor model; type: in vivo, NCr nude mice; settings: PC3, 2 mg/kg twice per week
Experimental: Briefly, 5×10^6 PC3 cells in 100 μl of growth factor-reduced Matrigel (BD Biosciences) were injected subcutaneously into the flanks of 6-8 week old male NCr nude mice (Taconic, Hudson, N.Y.). After tumor volumes reached an average of about 200 mm^3, mice were randomized into groups for treatment. […] Tumor volumes were measured twice per week over the course of the experiment and tumor weights were measured upon excision of tumors at the conclusion of the experiment. Averages (mean+/−standard deviation) of tumor weight and growth were calculated for each treatment group. Percent decrease of tumor weight and growth were calculated from comparison to Fc protein measurements.

Molecule	Inhibition of Tie-2 phosphorylation [1]	Inhibition of Tie-2 phosphorylation (in words) [1]	% Decrease in Tumor Growth [2] [%]	% Decrease in Tumor Weight [2] [%]	Avg Tumor Growth [2] [mm^3]	Avg Tumor Weight [2] [g]
B1	+++ (75-100%)	Especially robust inhibition	52	37	227 ± 195	0.348 ± 0.128
B2	+++ (75-100%)	Especially robust inhibition	–	–	–	–
B3	+++ (75-100%)	Especially robust inhibition	–	–	–	–
B4	+++ (75-100%)	–	50	41	179 ± 169	0.372 ± 0.122
B5	++ (50-75%)	–	–	–	–	–
